Experimental data taken from doi:10.1101/2020.04.09.012385.

Target: mouse DLX2 (Mus musculus, UniProt P40764 1-332)
Assay: EMSA

Sequence of mouse DLX2 (P40764 whole entry): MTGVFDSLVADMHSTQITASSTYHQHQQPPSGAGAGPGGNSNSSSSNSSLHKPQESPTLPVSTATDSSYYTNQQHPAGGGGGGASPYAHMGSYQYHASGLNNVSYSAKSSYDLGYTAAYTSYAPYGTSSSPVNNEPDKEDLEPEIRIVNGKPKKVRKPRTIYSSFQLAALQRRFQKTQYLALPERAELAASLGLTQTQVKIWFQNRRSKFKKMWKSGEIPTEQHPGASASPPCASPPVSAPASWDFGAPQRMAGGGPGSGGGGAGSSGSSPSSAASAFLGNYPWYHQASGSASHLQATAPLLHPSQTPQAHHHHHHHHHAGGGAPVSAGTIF

B1: mR6ii (dsDNA)
DNA 1: GATCCCGCCCCAATAGGTACTAATGACTGCCTGGGTGTCTACACTCACCG
DNA 2: CGGTGAGTGTAGACACCCAGGCAGTCATTAGTACCTATTGGGGCGGGATC
B1: no binding.
